# Reference: the supplement of paper PMC10567573
# B1: PTPLAD1 (parent)
# chain: YINFRHLYKQRRRRYGQKKKKIH
# Variants of: B1
# Test: protein stability index of a GFP-peptide fusion (GPS, HEK-293T) (PSI 1-6); higher = more stable
# Settings: c terminus: native
# 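Note: lentivirally expressed fusions sorted by FACS into six bins by GFP to DsRed ratio, PSI derived from sequencing read proportions per bin multiplied by bin number.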
row,Variant,protein stability index
1,K20P,2
2,K20R,1.82
3,K20M,1.88
4,K20F,1.71
5,K20S,1.69
6,K20T,1.99
7,K20N,1.89
8,K20G,2.77
9,K20A,2.05
10,K20D,3.01
11,K20E,1.66
12,K20Q,1.46
13,K20Y,3.24
14,K20I,2.92
15,K20H,2.35
16,K20C,1.83
17,K20W,1.91
18,K19A,2.04
19,K19P,1.95
20,K19E,1.57
21,K19D,2.66
22,K19T,1.96
23,K19I,2.54
24,K19N,1.62

row,Variant,protein stability index
1,K19Y,2.12
2,K19H,2.49
3,K19R,1.91
4,K19M,2.31
5,K19L,3.09
6,K19G,2.15
7,K19S,2.07
8,K19F,2.25
9,K19Q,2.09
10,K19W,2.02
11,R5P,2.49
12,R5S,1.17
13,R5T,2.38
14,R5I,1.53
15,R5M,1.59
16,R5A,2.93
17,R5W,1.55
18,R5K,2.51
19,R5N,1.57
20,R5Q,2.3
21,R5E,3.34
22,R5Y,2.37
23,R5F,2.14
24,R5G,1.38

row,Variant,protein stability index
1,R5C,1.45
2,R5D,2.02
3,R5L,1.79
4,R5H,1.8
5,Q17M,1.73
6,Q17W,1.63
7,Q17Y,1.7
8,Q17G,2.25
9,Q17E,2.55
10,Q17V,1.89
11,Q17C,1.48
12,Q17L,2.07
13,Q17F,2.3
14,Q17N,4
15,Q17R,2.59
16,Q17T,2.54
17,Q17A,2.66
18,Q17K,1.76
19,Q17H,1.72
20,Q17D,2.23
21,Q17P,1.46
22,L7V,2.93
23,L7Q,2.24
24,L7P,2.92

row,Variant,protein stability index
1,L7N,2.72
2,L7Y,2.29
3,L7M,2.31
4,L7S,2.04
5,L7E,2.79
6,L7G,2.68
7,L7I,1.94
8,L7F,1.41
9,L7D,3.07
10,L7T,2.26
11,L7H,2.31
12,L7A,2.01
13,L7R,2.77
14,H6Y,1.88
15,H6G,1.75
16,H6E,1.73
17,H6V,2.06
18,H6L,2.3
19,H6K,2.44
20,H6S,1.84
21,H6F,1.54
22,H6C,2.14
23,H6W,1.75
24,H6T,2.02

row,Variant,protein stability index
1,H6A,1.81
2,H6P,1.7
3,H6M,1.75
4,Q10K,2
5,Q10W,1.8
6,Q10E,1.96
7,Q10D,1.88
8,Q10F,2.15
9,Q10M,1.96
10,Q10L,2.14
11,Q10T,2.29
12,Q10C,2.22
13,Q10P,1.66
14,Q10S,1.7
15,Q10A,2.59
16,Q10Y,2.06
17,Q10V,1.47
18,Q10G,1.92
19,Q10H,2.27
20,Q10R,2.26
21,Q10I,1.3
22,Y15K,2.33
23,Y15I,2.11
24,Y15V,2.14

row,Variant,protein stability index
1,Y15C,2.22
2,Y15F,1.53
3,Y15Q,1.88
4,Y15L,2
5,Y15M,1.37
6,Y15A,2.12
7,Y15D,2.48
8,Y15W,2.59
9,Y15H,1.72
10,Y15S,1.74
11,Y15N,1.11
12,Y15G,2.14
13,Y15T,1.69
14,Y15R,2.85
15,Y15E,4.57
16,Y8N,2.72
17,Y8E,2.18
18,Y8W,2.9
19,Y8I,1.56
20,Y8C,2.01
21,Y8P,2.81
22,Y8H,2.31
23,Y8L,1.76
24,Y8S,1.95

row,Variant,protein stability index
1,Y8D,3.25
2,Y8A,2.52
3,Y8R,2.2
4,Y8G,2.03
5,Y8K,2.5
6,Y8T,1.76
7,I2R,2.05
8,I2H,1.29
9,I2K,2.27
10,I2P,2.9
11,I2M,2
12,I2N,3.6
13,I2S,2.53
14,I2Q,3.45
15,I2L,3.44
16,I2Y,2.1
17,I2V,1.97
18,R12E,1.58
19,R12C,1.55
20,R12I,2.44
21,R12M,2.44
22,R12H,1.93
23,R12K,1.91
24,R12A,1.44

row,Variant,protein stability index
1,R12P,1.96
2,R12W,2.15
3,R12T,3.06
4,R12F,1.62
5,R12S,2.18
6,R12D,2.24
7,R12V,3.11
8,R12G,2.92
9,R12Q,2.26
10,R12Y,2.01
11,R12L,1.25
12,R12N,2.05
13,R14G,2.47
14,R14Y,1.78
15,R14K,2.22
16,R14P,2.05
17,R14V,2.14
18,R14A,2.57
19,R14S,1.85
20,R14F,2.16
21,R14H,1.96
22,R14E,1.78
23,R14L,2.34
24,R14I,1.6

row,Variant,protein stability index
1,R14N,2.15
2,R14T,1.22
3,K21M,2.3
4,K21T,2.7
5,K21L,1.92
6,K21Q,1.39
7,K21D,1.33
8,K21V,1.6
9,K21N,2.27
10,K21I,2.14
11,K21Y,1.35
12,K21R,2.49
13,K21H,1.94
14,K21C,2.5
15,K21P,1.99
16,K21W,2.37
17,K21F,2.76
18,K21S,2.33
19,K21G,2.96
20,K18Y,2.39
21,K18C,2.62
22,K18M,1.78
23,K18V,2.29
24,K18R,1.97

row,Variant,protein stability index
1,K18D,2.44
2,K18P,1.52
3,K18F,2.46
4,K18A,2.15
5,K18E,2.17
6,K18N,1.96
7,K18L,2.42
8,K18S,1.65
9,K18G,1.91
10,K18I,2.86
11,K18Q,1.56
12,K18W,2.22
13,K18T,2.19
14,I22C,1.86
15,I22D,2.56
16,I22E,2.66
17,I22A,2.02
18,R13D,1.37
19,R13K,1.45
20,R13A,1.7
21,R13L,2.3
22,R13Q,1.91
23,R13G,1.41
24,R13I,1.9

row,Variant,protein stability index
1,R13Y,2.28
2,R13N,1.25
3,R13E,2.09
4,R13P,3.64
5,R13S,1.41
6,R13T,1.75
7,R13H,2.4
8,R13V,2.13
9,R13F,2.49
10,F4L,2.87
11,F4C,2.03
12,F4I,2.43
13,F4H,3.71
14,F4M,1.74
15,F4S,3.2
16,F4E,3.23
17,F4G,1.9
18,F4W,1.1
19,F4R,2.96
20,F4P,1.64
21,F4Q,2.77
22,F4D,3.02
23,F4K,3.29
24,F4N,2.29

row,Variant,protein stability index
1,F4Y,1.99
2,F4T,2.01
3,R11H,2.15
4,R11K,1.65
5,R11S,2.3
6,R11D,1.39
7,R11F,1.73
8,R11T,2.02
9,R11Q,2.37
10,R11L,1.61
11,R11A,1.72
12,R11Y,2.61
13,R11P,2.84
14,R11C,1.58
15,R11M,1.32
16,R11N,2.91
17,R11G,2.54
18,K9Y,2.6
19,K9N,2.8
20,K9W,2.45
21,K9G,1.95
22,K9C,1.83
23,K9E,2.03
24,K9T,2.12

row,Variant,protein stability index
1,K9H,2.17
2,K9D,3.3
3,K9V,1.91
4,K9I,2.26
5,K9A,3.21
6,K9P,2.27
7,K9Q,1.92
8,K9S,2.6
9,K9R,3.03
10,K9L,1.55
11,G16V,2.44
12,G16L,2.23
13,G16T,2.88
14,G16E,1.85
15,G16D,2.6
16,G16F,1.6
17,G16R,1.74
18,G16P,1.66
19,G16A,2.54
20,G16I,2.21
21,G16K,2.57
22,G16W,2.76
23,G16Q,1.56
24,G16Y,1.25

row,Variant,protein stability index
1,G16H,1.35
2,G16M,2.27
3,G16C,2.27
4,G16S,2.71
5,G16N,1.4
6,N3K,1.97
7,N3H,2.52
8,N3L,2.72
9,N3F,2.51
10,N3A,1.9
11,N3D,2.39
12,N3Y,1.71
13,N3S,2.68
14,N3T,2.31
15,N3W,1.37
16,N3V,1.61
17,N3R,4.4
18,N3I,1.58
19,N3C,1.57
20,N3Q,1.29
21,N3P,2.09
22,N3E,1.61
